Data reported in US20040146882A1, “Human acid sensing ion channel 2b (hASIC2b), process for producing the same, and its use” (priority 2002, published 2004).

T1: ASIC1 (Rattus norvegicus, UniProt P55926)
T1 sequence (P55926 1-526): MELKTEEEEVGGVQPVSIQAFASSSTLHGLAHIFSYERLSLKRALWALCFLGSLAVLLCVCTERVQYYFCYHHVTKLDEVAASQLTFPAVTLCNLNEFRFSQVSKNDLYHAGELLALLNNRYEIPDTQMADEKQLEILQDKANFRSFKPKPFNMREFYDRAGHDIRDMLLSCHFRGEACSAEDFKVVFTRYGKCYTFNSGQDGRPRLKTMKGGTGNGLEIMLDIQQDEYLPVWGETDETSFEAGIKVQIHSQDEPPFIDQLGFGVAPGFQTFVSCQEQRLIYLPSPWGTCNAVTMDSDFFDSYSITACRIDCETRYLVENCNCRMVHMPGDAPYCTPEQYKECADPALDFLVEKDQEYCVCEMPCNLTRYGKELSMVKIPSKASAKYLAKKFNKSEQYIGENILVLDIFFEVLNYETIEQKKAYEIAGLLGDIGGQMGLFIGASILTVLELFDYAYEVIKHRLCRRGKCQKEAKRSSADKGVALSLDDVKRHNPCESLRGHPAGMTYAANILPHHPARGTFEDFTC

T2: ASIC2a (Rattus norvegicus, UniProt Q62962)
T2 sequence (Q62962 1-512): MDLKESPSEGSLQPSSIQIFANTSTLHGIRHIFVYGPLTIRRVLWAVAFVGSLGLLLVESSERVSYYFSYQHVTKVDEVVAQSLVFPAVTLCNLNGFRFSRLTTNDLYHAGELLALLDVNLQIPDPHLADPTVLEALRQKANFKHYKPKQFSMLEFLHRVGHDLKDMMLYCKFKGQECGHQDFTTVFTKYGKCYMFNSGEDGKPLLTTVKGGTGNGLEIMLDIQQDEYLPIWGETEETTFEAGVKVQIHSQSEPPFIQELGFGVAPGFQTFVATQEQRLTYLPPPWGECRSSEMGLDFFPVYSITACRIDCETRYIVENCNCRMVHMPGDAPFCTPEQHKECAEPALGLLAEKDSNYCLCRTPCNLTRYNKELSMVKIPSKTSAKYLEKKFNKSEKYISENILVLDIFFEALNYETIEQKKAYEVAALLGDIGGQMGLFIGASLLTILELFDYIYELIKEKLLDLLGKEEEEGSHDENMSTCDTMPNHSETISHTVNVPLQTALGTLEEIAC

B1: human Acid Sensing Ion Channel 2b (hASIC2b) (protein)
chain: MSRIGGAGLPAAALTGPGRFRMAREEPAPAALAAAGQPGGGRGGERALQGPGVARRGRPSLSRAKLHGLRHMCAGRTAAGGSFQRRALWVLAFCTSFGLLLSWSSNRLLYWLSFPSHTRVHREWSRQLPFPAVTVCNNNPLRFPRLSKGDLYYAGHWLGLLLPNRTARPLVSELLRGDEPRRQWFRKLADFRLFLPPRHFEGISAAFMDRLGHQLEDMLLSCKYRGELCGPHNFSSVFTKYGKCYMFNSGEDGKPLLTTVKGGTGNGLEIMLDIQQDEYLPIWGETEETTFEAGVKVQIHSQSEPPFIQELGFGVAPGFQTFVATQEQRLTYLPPPWGECRSSEMGLDFFPVYSITACRIDCETRYIVENCNCRMVHMPGDAPFCTPEQHKECAEPALGLLAEKDSNYCLCRTPCNLTRYNKELSMVKIPSKTSAKYLEKKFNKSEKYISENILVLDIFFEALNYETIEQKKAYEVAALLGDIGGQMGLFIGASILTILELFDYIYELIKEKLLDLLGKEEDEGSHDENVSTCDTMPNHSETISHTVNVPLQTTLGTLEEIAC

Columns and labels:
[1] = molecular target: T1, ASIC1; conditions: cited from earlier work
[2] = molecular target: T2, ASIC2a; conditions: cited from earlier work
[3] = molecular target: human Acid Sensing Ion Channel 2a (hASIC2a) (human) (UniProt Q16515); experiment: cell-based or functional assay
[4] = system: CHO-K1 cells; experiment: whole-cell patch clamp recording of acid-induced currents in transfected CHO-K1 cells; type: cell-based, Chinese Hamster
Experimental: The mammalian expression vectors for hASIC2b and hASIC2a were constructed using appropriate expression vectors such as pcDNA3.1 (Clonetech) according to conventional molecular biological methods. Chinese Hamster Ovary (CHO)-K1 cells were seeded on a 35 mm dish in diameter at a density of 20,000 cells, and then transfected with various combinations of ASIC expression vectors with FuGENE6 transfection reagent (Roche) according to the manufacturer's instructions as follows: the hAISC2b expression vector alone (1 μg) for homomeric hASIC2b expression, hASIC2a and green fluorescent protein (GFP) expression vectors (1:2 molar ratio in a total of 1 μg) for hASIC2a expression, and hASIC2b/hASIC2a (1:2 molar ratio in a total of 1 μg) for heteromeric expression. Cells were used for electrophysiological measurements 2 days after the transfection. Successfully transfected cells were recognized by GFP emission signal. Ion currents were recorded using whole-cell patch clamp technique. Recording was made with an Axopatch 200B amplifier (Axon Instruments). Currents were filtered at 5 kHz and digitized by using Digidata 1321A interface. Data were interpolated using Origin6.0 (version 6.0, Microcal). Pipettes were pulled from borosilicate glass and had pipette resistances 1-4MΩ when filled with the intercellular solution. All recordings were made at room temperature (23±2° C.). […]

Molecule	block of ASIC1 [1]	sensitivity of cation transport by ASIC2a [2]	sensitivity of cation transport by ASIC1a [1]	pH50 value for activation (hASIC2a/hASIC2b co-expressing CHO-K1 cells) [3]	peak current density at pH2.0 (hASIC2a/hASIC2b CHO-K1 transformants) [3]	peak current density at pH3.0 (hASIC2a/hASIC2b CHO-K1 transformants) [3]	peak current density at pH4.0 (hASIC2a/hASIC2b CHO-K1 transformants) [3]	acid-induced inward currents ([4]; 5 sec application of low pH solution, pH 2.0-4.0, FIG. 5)	effect on acid-induced ion currents of hASIC2a ([4]; co-expression with hASIC2a)
CCN(c1nc(N)c(C(=O)NC(=N)N)nc1Cl)C(C)C [ethylisopropylamiloride]	blocked								
N=C(N)NC(=O)c1nc(Cl)c(N)nc1N [amiloride]	blocked	sensitive	sensitive						
B1				3.43 pH	113 pA/pF	88.9 pA/pF	21 pA/pF	inactive	inhibitory effect
